Source: publication doi:10.1101/2021.06.25.449899 (bioRxiv, 2021)

Target: the molecule itself
Test: SEC-MALS

B1: Mycobacterium tuberculosis transcription termination factor Rho, wild type (enzyme)
chain: TDTDLITAGESTDGKPSDAAATDPPDLNADEPAGSLATMVLPELRALANRAGVKGTSGMRKNELIAAIEEIRRQANGAPAVDRSAQEHDKGDRPPSSEAPATQGEQTPTEQIDSQSQQVRPERRSATREAGPSGSGERAGTAADDTDNRQGGQQDAKTEERGTDAGGDQGGDQQASGGQQARGDEDGEARQGRRGRRFRDRRRRGERSGDGAEAELREDDVVQPVAGILDVLDNYAFVRTSGYLPGPHDVYVSMNMVRKNGMRRGDAVTGAVRVPKEGEQPNQRQKFNPLVRLDSINGGSVEDAKKRPEFGKLTPLYPNQRLRLETSTERLTTRVIDLIMPIGKGQRALIVSPPKAGKTTILQDIANAITRNNPECHLMVVLVDERPEEVTDMQRSVKGEVIASTFDRPPSDHTSVAELAIERAKRLVEQGKDVVVLLDSITRLGRAYNNASPASGRILSGGVDSTALYPPKRFLGAARNIEEGGSLTIIATAMVETGSTGDTVIFEEFKGTGNAELKLDRKIAERRVFPAVDVNPSGTRKDELLLSPDEFAIVHKLRRVLSGLDSHQAIDLLMSQLRKTKNNYEFLVQVSKTTPGSMDSD
  stoichiometry N: 6
